Experimental data from IntAct's records for PubMed 34502139.

B1: Mitochondrial import receptor subunit TOM70 (Homo sapiens), O94826 (parent)
chain: MAASKPVEAAVVAAAVPSSGSGVGGGGTAGPGTGGLPRWQLALAVGAPLLLGAGAIYLWSRQQRRREARGRGDASGLKRNSERKTPEGRASPAPGSGHPEGPGAHLDMNSLDRAQAAKNKGNKYFKAGKYEQAIQCYTEAISLCPTEKNVDLSTFYQNRAAAFEQLQKWKEVAQDCTKAVELNPKYVKALFRRAKAHEKLDNKKECLEDVTAVCILEGFQNQQSMLLADKVLKLLGKEKAKEKYKNREPLMPSPQFIKSYFSSFTDDIISQPMLKGEKSDEDKDKEGEALEVKENSGYLKAKQYMEEENYDKIISECSKEIDAEGKYMAEALLLRATFYLLIGNANAAKPDLDKVISLKEANVKLRANALIKRGSMYMQQQQPLLSTQDFNMAADIDPQNADVYHHRGQLKILLDQVEEAVADFDECIRLRPESALAQAQKCFALYRQAYTGNNSSQIQAAMKGFEEVIKKFPRCAEGYALYAQALTDQQQFGKADEMYDKCIDLEPDNATTYVHKGLLQLQWKQDLDRGLELISKAIEIDNKCDFAYETMGTIEVQRGNMEKAIDMFNKAINLAKSEMEMAHLYSLCDAAHAQTEVAKKYGLKPPTL

Variants of: B1
Settings: with orf9b_sars2 orf9b

**Q.** With R192A as the variant, how does the “effect of a mutation on the interaction” value read?
**A.** Its value is “decreasing interaction strength”.

Variants of: B1
Settings: with orf9b_sars2 orf9b
Remark: another data set of the same source

**Q.** Which “effect of a mutation on the interaction” value does the source give for E477A here?
**A.** The value was “decreasing interaction strength”.
